The assay deals with EGFR (Homo sapiens, UniProt P00533). The assay can be described thus: 125I-EGF radioligand saturation binding on human bone marrow mesenchymal progenitor cells.

B1: EGF (protein)
chain: NSYPGCPSSYDGYCLNGGVCMHIESLDSYTCNCVIGYSGDRCQTRDLRWWELR
modifications: 125I-labeled EGF
The molecule B1 yielded a Kd of 0.0349 nM.

What is called Kd is the constant that tells how readily two partners part at equilibrium.

The values above are taken from paper PMC3534030 (2012).
